Results taken from the Human Domainome abundance scans (Beltran et al. 2025).
± gives the uncertainty stated by the source.

B1: Segment polarity protein dishevelled homolog DVL-3, residues 2 to 81; numbered along this chain, Q92997 (parent)
chain: GETKIIYHLDGQETPYLVKLPLPAERVTLADFKGVLQRPSYKFFFKSMDDDFGVVKEEISDDNAKLPCFNGRVVSWLVSA

Variants of: B1
Assay: abundance fitness (aPCA) (normalised: wild type 0, dead -1); higher = more abundant; growth selection in yeast, the domain comes from the species named
Details: Homo sapiens

Variant	abundance fitness
GETKIIYRLDGQETPYLVKLPLPAERVTLADFKGVLQRPSYKFFFKSMDDDFGVVKEEISDDNAKLPCFNGRVVSWLVSA	-0.326 ± 0.062
GETKIIYHEDGQETPYLVKLPLPAERVTLADFKGVLQRPSYKFFFKSMDDDFGVVKEEISDDNAKLPCFNGRVVSWLVSA	-0.546 ± 0.092
GETKIIYHIDGQETPYLVKLPLPAERVTLADFKGVLQRPSYKFFFKSMDDDFGVVKEEISDDNAKLPCFNGRVVSWLVSA	0.163 ± 0.072
GETKIIYHPDGQETPYLVKLPLPAERVTLADFKGVLQRPSYKFFFKSMDDDFGVVKEEISDDNAKLPCFNGRVVSWLVSA	-0.695 ± 0.13
GETKIIYHHDGQETPYLVKLPLPAERVTLADFKGVLQRPSYKFFFKSMDDDFGVVKEEISDDNAKLPCFNGRVVSWLVSA	-1.14 ± 0.38
GETKIIYHTDGQETPYLVKLPLPAERVTLADFKGVLQRPSYKFFFKSMDDDFGVVKEEISDDNAKLPCFNGRVVSWLVSA	-0.767 ± 0.12
GETKIIYHQDGQETPYLVKLPLPAERVTLADFKGVLQRPSYKFFFKSMDDDFGVVKEEISDDNAKLPCFNGRVVSWLVSA	-0.825 ± 0.13
GETKIIYHGDGQETPYLVKLPLPAERVTLADFKGVLQRPSYKFFFKSMDDDFGVVKEEISDDNAKLPCFNGRVVSWLVSA	-0.622 ± 0.063
GETKIIYHRDGQETPYLVKLPLPAERVTLADFKGVLQRPSYKFFFKSMDDDFGVVKEEISDDNAKLPCFNGRVVSWLVSA	-0.704 ± 0.068
GETKIIYHFDGQETPYLVKLPLPAERVTLADFKGVLQRPSYKFFFKSMDDDFGVVKEEISDDNAKLPCFNGRVVSWLVSA	-0.575 ± 0.14
GETKIIYHNDGQETPYLVKLPLPAERVTLADFKGVLQRPSYKFFFKSMDDDFGVVKEEISDDNAKLPCFNGRVVSWLVSA	-0.888 ± 0.23
GETKIIYHMDGQETPYLVKLPLPAERVTLADFKGVLQRPSYKFFFKSMDDDFGVVKEEISDDNAKLPCFNGRVVSWLVSA	-0.283 ± 0.079
GETKIIYHSDGQETPYLVKLPLPAERVTLADFKGVLQRPSYKFFFKSMDDDFGVVKEEISDDNAKLPCFNGRVVSWLVSA	-0.366 ± 0.068
GETKIIYHVDGQETPYLVKLPLPAERVTLADFKGVLQRPSYKFFFKSMDDDFGVVKEEISDDNAKLPCFNGRVVSWLVSA	0.167 ± 0.043
GETKIIYHKDGQETPYLVKLPLPAERVTLADFKGVLQRPSYKFFFKSMDDDFGVVKEEISDDNAKLPCFNGRVVSWLVSA	-0.574 ± 0.095
GETKIIYHDDGQETPYLVKLPLPAERVTLADFKGVLQRPSYKFFFKSMDDDFGVVKEEISDDNAKLPCFNGRVVSWLVSA	-0.535 ± 0.13
GETKIIYHADGQETPYLVKLPLPAERVTLADFKGVLQRPSYKFFFKSMDDDFGVVKEEISDDNAKLPCFNGRVVSWLVSA	-0.518 ± 0.075
GETKIIYHCDGQETPYLVKLPLPAERVTLADFKGVLQRPSYKFFFKSMDDDFGVVKEEISDDNAKLPCFNGRVVSWLVSA	-0.528 ± 0.12

Variant	abundance fitness
GETKIIVHLDGQETPYLVKLPLPAERVTLADFKGVLQRPSYKFFFKSMDDDFGVVKEEISDDNAKLPCFNGRVVSWLVSA	-0.37 ± 0.064
GETKIIGHLDGQETPYLVKLPLPAERVTLADFKGVLQRPSYKFFFKSMDDDFGVVKEEISDDNAKLPCFNGRVVSWLVSA	-0.833 ± 0.09
GETKIIWHLDGQETPYLVKLPLPAERVTLADFKGVLQRPSYKFFFKSMDDDFGVVKEEISDDNAKLPCFNGRVVSWLVSA	-0.869 ± 0.14
GETKIICHLDGQETPYLVKLPLPAERVTLADFKGVLQRPSYKFFFKSMDDDFGVVKEEISDDNAKLPCFNGRVVSWLVSA	-0.663 ± 0.14
GETKIIKHLDGQETPYLVKLPLPAERVTLADFKGVLQRPSYKFFFKSMDDDFGVVKEEISDDNAKLPCFNGRVVSWLVSA	-0.749 ± 0.14
GETKIIQHLDGQETPYLVKLPLPAERVTLADFKGVLQRPSYKFFFKSMDDDFGVVKEEISDDNAKLPCFNGRVVSWLVSA	-0.975 ± 0.19
GETKIITHLDGQETPYLVKLPLPAERVTLADFKGVLQRPSYKFFFKSMDDDFGVVKEEISDDNAKLPCFNGRVVSWLVSA	-0.731 ± 0.12
GETKIILHLDGQETPYLVKLPLPAERVTLADFKGVLQRPSYKFFFKSMDDDFGVVKEEISDDNAKLPCFNGRVVSWLVSA	-0.735 ± 0.083
GETKIIIHLDGQETPYLVKLPLPAERVTLADFKGVLQRPSYKFFFKSMDDDFGVVKEEISDDNAKLPCFNGRVVSWLVSA	-0.74 ± 0.14
GETKIIRHLDGQETPYLVKLPLPAERVTLADFKGVLQRPSYKFFFKSMDDDFGVVKEEISDDNAKLPCFNGRVVSWLVSA	-0.811 ± 0.086
GETKIIPHLDGQETPYLVKLPLPAERVTLADFKGVLQRPSYKFFFKSMDDDFGVVKEEISDDNAKLPCFNGRVVSWLVSA	-0.806 ± 0.15
GETKIISHLDGQETPYLVKLPLPAERVTLADFKGVLQRPSYKFFFKSMDDDFGVVKEEISDDNAKLPCFNGRVVSWLVSA	-0.884 ± 0.11
GETKIINHLDGQETPYLVKLPLPAERVTLADFKGVLQRPSYKFFFKSMDDDFGVVKEEISDDNAKLPCFNGRVVSWLVSA	-0.636 ± 0.16
GETKIIDHLDGQETPYLVKLPLPAERVTLADFKGVLQRPSYKFFFKSMDDDFGVVKEEISDDNAKLPCFNGRVVSWLVSA	-0.947 ± 0.19
GETKIIAHLDGQETPYLVKLPLPAERVTLADFKGVLQRPSYKFFFKSMDDDFGVVKEEISDDNAKLPCFNGRVVSWLVSA	-0.882 ± 0.14
GETKIIEHLDGQETPYLVKLPLPAERVTLADFKGVLQRPSYKFFFKSMDDDFGVVKEEISDDNAKLPCFNGRVVSWLVSA	-0.608 ± 0.13
GETKIIHHLDGQETPYLVKLPLPAERVTLADFKGVLQRPSYKFFFKSMDDDFGVVKEEISDDNAKLPCFNGRVVSWLVSA	-0.78 ± 0.26
